Results as given in article PMC9966940.

Molecular target: SOD1-His (not stated (human or mouse cDNA cloned)) (UniProt P00441)
Sequence (P00441 whole entry): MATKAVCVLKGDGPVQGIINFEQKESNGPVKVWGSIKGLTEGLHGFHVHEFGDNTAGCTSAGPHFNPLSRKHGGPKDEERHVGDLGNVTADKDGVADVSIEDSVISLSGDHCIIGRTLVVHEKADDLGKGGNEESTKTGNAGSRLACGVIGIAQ

Sequence of YWHAE protein purified by His tag from Pichia pastoris (P62258 whole entry): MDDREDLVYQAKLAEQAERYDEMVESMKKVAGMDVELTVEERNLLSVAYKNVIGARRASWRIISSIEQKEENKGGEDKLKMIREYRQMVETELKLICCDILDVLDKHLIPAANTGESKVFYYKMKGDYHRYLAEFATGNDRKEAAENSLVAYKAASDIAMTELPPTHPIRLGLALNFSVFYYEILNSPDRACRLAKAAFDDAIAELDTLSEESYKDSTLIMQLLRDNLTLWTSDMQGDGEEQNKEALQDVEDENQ

SOD1 activity of purified SOD1 incubated with purified YWHAE at 1:1 for 0-15 h at 4 °C in SOD1 activity assay buffer, against SOD1 plus buffer; value at 4 h: 40%
Substance: YWHAE protein purified by His tag from Pichia pastoris (from UniProt P62258 1-255) (natural protein)
